Results: patent US20250327097A1, “ORGANISMS PRODUCING LESS CROTONIC ACID” (Global Bioenergies, priority 2021, published 2025)
Substitutions are numbered along the chain they refer to. Numbers in names are those of the source.

B1: I283T-N285P-N287T-Q290E-S322T-N388M-K394R-E421L-C430A-L432F-L434W-S436N-dG462 (protein)
chain: MFLKSLREQINLLKRQGDLRIINRPVDSYLEAAAIIRRSTETKAPVPLMTNIKGYPGCSIVGGLAALSSNPEYPLSRVAMSLGLSTTASAQSIVQYLIDGLKKTPYLPVEIDSNSAPCKQNILRGEDASLAHFPIPQVHQHDGNRYVNTWGVFIVESPDGQWCNWSIQRVQYLNDRQMIALVFPSQHISDIWEEWVKIGKPMPYALVQGCEPIVPYIAGLPLLERNVNEAEYIGALYGKGIEVVKCETHDLRVPASSEVVIEGYFAITREGVEGPFGEFAGYTPPETSLEPILSITAISWQDDPIWPVVAEGKPVDEYHTCTGIGDAAAIQNVLLTANLPVSFVWVPLYSACHLMIVSINRHWRQTHPDLTSEQLTKKVGDVIHQTRMSIKLPRIVVLDDDVDPADTESLLWALATRIHPLRKRYFYESAIFPWLNCYSEEERHNRKGKRVIIDALLPENHGAISSFDYAYPDDIKQRVLMHWETDFSHD
B2: I283T-N285P-N287T-Q290E-S322T-N388M-K394R-C430A-L432F-L434W-S436N-C437I-dG462 (protein)
chain: B1 chain with L421E, C437I
B3: I283T-N285P-N287T-Q290E-S322T-N388M-K394R-E421F-C430A-L432F-L434W-S436N-dG462 (protein)
chain: B1 chain with L421F
B4: I283T-N285P-N287T-Q290E-S322T-N388M-K394R-C430A-I431P-L432F-L434W-S436N-dG462 (protein)
chain: B1 chain with L421E, I431P
B5: I283T-N285P-N287T-Q290E-S322T-N388M-K394R-C430A-I431C-L432F-L434W-S436N-dG462 (protein)
chain: B1 chain with L421E, I431C
B6: I283T-N285P-N287T-Q290E-S322T-N388M-K394R-C430A-L432F-L434W-S436N-C437L-dG462 (protein)
chain: B1 chain with L421E, C437L
B7: I283T-N285P-N287T-Q290E-S322T-N388M-K394R-C430A-I431K-L432F-L434W-S436N-dG462 (protein)
chain: B1 chain with L421E, I431K
B8: I283T-N285P-N287T-Q290E-S322T-N388M-K394R-i421aS-C430A-L432F-L434W-S436N-dG462 (protein)
chain: B1 chain with L421E
B9: I283T-N285P-N287T-Q290E-S322T-N388M-K394R-S429V-C430A-L432F-L434W-S436N-dG462 (protein)
chain: B1 chain with L421E, S429V
B10: I283T-N285P-N287T-Q290E-S322T-N388M-K394R-C430A-L432F-L434W-S436N-S439P-dG462 (protein)
chain: B1 chain with L421E, S439P
B11: N332H-N388M-K394R-C430N-L432F-L434W-S436N (protein)
chain: B1 chain with T283I, P285N, T287N, E290Q, T322S, N332H, L421E, A430N
B12: I283T-N285P-N287T-Q290E-S322T-N388M-K394R-C430S-L432F-L434W-S436N-dG462 (protein)
chain: B1 chain with L421E, A430S
B13: I283T-N285P-N287T-Q290E-S322T-N388M-K394R-i421aR-C430A-L432F-L434W-S436N-dG462 (protein)
chain: B1 chain with L421E
B14: I283T-N285P-N287T-Q290E-S322T-N388M-K394R-i421aI-C430A-L432F-L434W-S436N-dG462 (protein)
chain: B1 chain with L421E
B15: I283T-N285P-N287T-Q290E-S322T-N388M-K394R-C430A-I431A-L432F-L434W-S436N-dG462 (protein)
chain: B1 chain with L421E, I431A
B16: I283T-N285P-N287T-Q290E-S322T-N388M-K394R-i424aL-C430A-L432F-L434W-S436N-dG462 (protein)
chain: B1 chain with L421E
B17: I283T-N285P-N287T-Q290E-S322T-N388M-K394R-i424aA-C430A-L432F-L434W-S436N-dG462 (protein)
chain: B1 chain with L421E
B18: I283T-N285P-N287T-Q290E-S322T-N388M-K394R-i421aE-C430A-L432F-L434W-S436N-dG462 (protein)
chain: B1 chain with L421E
B19: I283T-N285P-N287T-Q290E-S322T-N388M-K394R-i421aD-C430A-L432F-L434W-S436N-dG462 (protein)
chain: B1 chain with L421E
B20: P284E-N388M-K394R-C430N-L432F-L434W-S436N (protein)
chain: B1 chain with T283I, P284E, P285N, T287N, E290Q, T322S, L421E, A430N
B21: S322T-N388M-K394R-C430N-L432F-L434W-S436N (protein)
chain: B1 chain with T283I, P285N, T287N, E290Q, L421E, A430N
B22: I283T-N285P-N287T-Q290E-S322T-N388M-K394R-i424aW-C430A-L432F-L434W-S436N-dG462 (protein)
chain: B1 chain with L421E
B23: I283T-N285P-N287T-Q290E-S322T-N388M-K394R-C430A-L432F-L434W-S436N-Y438W-dG462 (protein)
chain: B1 chain with L421E, Y438W
B24: I283T-N285P-N287T-Q290E-S322T-N388M-K394R-C430A-L432F-L434W-S436N-C437T-dG462 (protein)
chain: B1 chain with L421E, C437T
B25: I283T-N285P-N287T-Q290E-S322T-N388M-K394R-C430A-I431N-L432F-L434W-S436N-dG462 (protein)
chain: B1 chain with L421E, I431N
B26: I283T-N285P-N287T-Q290E-S322T-N388M-K394R-C430A-L432F-L434W-S436N-G448C-dG462 (protein)
chain: B1 chain with L421E, G448C
B27: D27N-I283T-N285P-N287T-Q290E-S322T-N388M-K394R-C430A-L432F-L434W-S436N-G448T-dG462 (protein)
chain: B1 chain with D27N, L421E, G448T
B28: I283T-N285P-N287T-Q290E-S322T-N388M-K394R-C430A-L432F-L434W-S436N-Y438M-dG462 (protein)
chain: B1 chain with L421E, Y438M
B29: I283T-N285P-N287T-Q290E-S322T-N388M-K394R-i421aP-C430A-L432F-L434W-S436N-dG462 (protein)
chain: B1 chain with L421E
B30: I283T-N285P-N287T-Q290E-S322T-N388M-K394R-C430A-L432F-L434W-S436N-K447T-dG462 (protein)
chain: B1 chain with L421E, K447T
B31: I283T-N285P-N287T-Q290E-S322T-N388M-K394R-i421aT-C430A-L432F-L434W-S436N-dG462 (protein)
chain: B1 chain with L421E
B32: I283T-N285P-N287T-Q290E-S322T-N388M-K394R-C430A-I431T-L432F-L434W-S436N-dG462 (protein)
chain: B1 chain with L421E, I431T
B33: I283T-N285P-N287T-Q290E-S322T-N388M-K394R-C430A-L432F-L434W-S436N-C437M-dG462 (protein)
chain: B1 chain with L421E, C437M

The molecules below were run on 3-methylcrotonic acid.
Format: biochemical, Yersinia frederiksenii
Design: key: “+” representing a low increase in activity; “++++” representing a high increase in activity

How did the “Activity relative to WT” value turn out when B1 was run?
The value was “++++”.

Which “Activity relative to WT” value does the source give for B2 here?
The value was “++++”.

For B3, which “Activity relative to WT” value is on record?
Its value is “++++”.

For B4, which “Activity relative to WT” value is on record?
The value was “++++”.

Which “Activity relative to WT” value does the source give for B5 here?
Its value is “++++”.

Which “Activity relative to WT” value does the source give for B6 here?
Its value is “++++”.

With B7 as the molecule, how does the “Activity relative to WT” value read?
Its value is “++++”.

With B8 as the molecule, how does the “Activity relative to WT” value read?
The value was “++++”.

For B9, which “Activity relative to WT” value is on record?
Its value is “++++”.

Which “Activity relative to WT” value does the source give for B10 here?
Its value is “++++”.

With B11 as the molecule, how does the “Activity relative to WT” value read?
The value was “+”.

How did the “Activity relative to WT” value turn out when B12 was run?
Its value is “++++”.

How did the “Activity relative to WT” value turn out when B13 was run?
The value was “++++”.

Which “Activity relative to WT” value does the source give for B14 here?
Its value is “++++”.

How did the “Activity relative to WT” value turn out when B15 was run?
Its value is “++++”.

Which “Activity relative to WT” value does the source give for B16 here?
Its value is “++++”.

Which “Activity relative to WT” value does the source give for B17 here?
The value was “++++”.

How did the “Activity relative to WT” value turn out when B18 was run?
Its value is “++++”.

With B19 as the molecule, how does the “Activity relative to WT” value read?
Its value is “++++”.

How did the “Activity relative to WT” value turn out when B20 was run?
Its value is “+”.

With B21 as the molecule, how does the “Activity relative to WT” value read?
The value was “+”.

Which “Activity relative to WT” value does the source give for B22 here?
The value was “++++”.

B23 was tested. Which “Activity relative to WT” value did it give?
The value was “++++”.

For B24, which “Activity relative to WT” value is on record?
Its value is “++++”.

Which “Activity relative to WT” value does the source give for B25 here?
The value was “++++”.

How did the “Activity relative to WT” value turn out when B26 was run?
Its value is “++++”.

B27 was tested. Which “Activity relative to WT” value did it give?
Its value is “++++”.

B28 was tested. Which “Activity relative to WT” value did it give?
Its value is “++++”.

How did the “Activity relative to WT” value turn out when B29 was run?
The value was “++++”.

For B30, which “Activity relative to WT” value is on record?
The value was “++++”.

With B31 as the molecule, how does the “Activity relative to WT” value read?
The value was “++++”.

B32 was tested. Which “Activity relative to WT” value did it give?
The value was “++++”.

For B33, which “Activity relative to WT” value is on record?
Its value is “++++”.
